# Assay: soluble on expression in E. coli; label from the status in PepcDB or PDB records
row,Sequence,soluble on expression in E. coli
1,MANDKIVIHGARAHNLKNIDVTIPRDKMVVVTGLSGSGKSSLAFDTLYAEGQRRYVESLSAYARQFLGQMDKPDVDSIDGLSPAISIDQKTTSKNPRSTVGTVTEINDYLRLLFARVGHPICPNDHIEITSQSVEQMVDKVLELPERTKIQILAPVVVKKKGQHKKVFEMIQREGYVRMRVDGETYDVSEAPELEKNKKHDIAIVIDRIVVKEGIRSRLFDSFEAALRLAEGYAIVDVIGQEEMLFSEHYACPYCGFTVGELEPRLFSFNAPFGACPDCDGLGVKLEVDKDLVIPDPTKTLREGAIVPWNPISSQYYPQMLEQAATSFGIDMDTPFEELPADQQEIILNGSGEKNFHFHYENDFGGVRDVEVPFEGILKNIKRRYHETNSDFTRDQMRLYMTELTCRSCQGYRLNPQALAVKINGTHIGEVSELAIKNAVQFFEGVSLSEQETTIARPILKEVEDRLTFLKNVGLDYLTLSRAAGTLSGGEAQRIRLATQIGSNLSGVLYILDEPSIGLHQRDNDRLIDSLKKMRDLGNTLIVVEHDEDTMMASDYLIDVGPGAGHLGGEIVAAGTPEEVAKNPHSLTGQYLSGKKVIPVPKERRKGNGKAIKVTGASENNLKNVSVEFPLGEFVAVTGVSGSGKSTLVNQILKKALAQKLNRNSNKPGKHKSITGYEAIEKIVDIDQSPIGRTPRSNPATYTSVFDDIRDLFAQTNEAKVRGYKKGRFSFNVKGGRCEACRGDGIIKIEMHFLPDVYVPCEVCHGKRYNSETLEVHYKGKNISDILDMTVEDAVEFFKHIPKIHRKLQTIVDVGLGYVTLGQPATTLSGGEAQRMKLASELHKNSNGKNFYILDEPTTGLHTDDIARLLLVLERLVEAGNTVLVIEHNLDVIKSADHVIDLGPEGGDGGGTIVATGTPEEVAKVKDSYTGYYLKRVLK,not soluble
2,SEKYNSLSDFLKEFYIPTYVLSAETEEEEEEESRPTPASPVLVFINSKSGGQLGGELILTYRSLLNHNQVFDLDQETPDKVLRRIYLNLERLKDDDFARQIREKLKIIVAGGDGTAGWLLGVVCDLKLSHPPPIATVPLGTGNNLPFAFGWGKKNPGTDRTAVESFLEQVLKAKVMKIDNWHILMRMKTPKEGGSCDPVAPLELPHSLHAFHRVSPTDELNKEGCHTFRGGFWNYFSLGMDAQISYAFHSERKLHPEKFKNQLVNQSTYVKLGCTQGWFCASLFHPASRNIAQLAKVKIATRNGQWQDLHIPHSIRSIVCLNLPSFSGGLNPWGTPNPRKQRDRGLTPPFVDDGLIEVVGFRNAWHGLVLLAPNGHGTRLAQANRIRFEFHKGATDHTFMRMDGEPWKQPLPLDDETVMVEISHLGQVNMLATHDCRSRSVFDPSTPRHQDGAEDYDDNEDDSVAEGEEFRKFGAADTFKIPDEVDISQLS,soluble
3,MSLADLQKNFQTSFRDAMASCAAGVHVITTDGAAGRYGITMTAVAPVTDEPPTVMLCINRSARIIPILSENGSLCINTLADEHQDVAEHFAGLTGLSPEERFAYHIWHRGKTGQLEIEGALAHLHGHIVGKHEIGTHFVFYVRLDEIKNCGCKRPALLYFRRQFRFLDEGGSHHHHHH,soluble
4,MESIKLSQKAEEEIVNAARMAALSNLTEKSQNLITLEDIAIYFGRHYQTVAKIISKLPNFPKPVTPVTVDQQNSRPRYIAGEVVRWGRINAKPY,not soluble
5,MDGSLSRPAVLDRAARQKRGTMARPQSKKKQTQVVRRPRRRGRLVPPGRLIAGRDFPEFLQQAVLLSGSLRQAARKLRVSYSTLRGWFGRRCDEPPEGGGDLLAEHAAAIRAELDAAAERLAMVRGQLDALERGE,not soluble
6,MKITKISLFQKVLPYCSGSLAIGDLSENRTKPFDTFTSSVVVINTDQGVSGVGESCPWVSDNLNEKEVYDCLASRLLGEDPHNLKGIVKNMDAVIQGHTFAKSAIDMACWDIKAKDNGVPLFELLGGMLTDGAPLYRCVMEQEHDKIKAEVEQYRASGYKYFKLRVGIEPDKDIELIKFAANLAEPGEIVYADANCRWTLSEALEVVKAIEGLDVMIEQPCLSYEDCIKVRENTGLLIKLDELVTDLTMAKKIVRDHTADVVCIKMSRVGGLSKALEIRDFFVKKGIKVVTECMMGGEIVSAAVSHFSASTPSEFLFNTGDLHAYVTASTGNISPPTLNGRIYCNDSPGLGVEPDLTSLGTPIAIYQN,soluble
7,MGKWRYLAIGVCLMTTSGVTFADSLDAQRQRYQQVKLAWDSNQMDTVAQLMPTLRDYPLYPYLEYRQLTQDLSQVSTAQVKDFLNRHPTLPPAKSLPSRFVNELARREDWRGLLTFSPTAPKPVAARCNYYYAKWATGEQSVAWEGASEIWLNGQSLPGSCDKLFSVWQQAGHQTPLATLARMKLALKEGNASLVSYLLKQLPADYQTMGTALAKLQSDPSSVESFARTVGPTDFTRSATTIAFTRLARQDVENARLMIPSLVRLQKMSDSEKLELEEAVAWRLMGNDATYEQAKWRDQVALRSHSTSLLERRIRMSLGSGDRQGLATWLARLPAEAQDKDEWRYWRASLLLEQGKKAEGEAILRSLTKERGFYPMVAAQKLNIPYPIKVQVAAKPDVSLAQRPEIARVRELMYWNMDNQARAEWSYLVASRSKAEQEALARYAFDQKWADLSVQATIVAKLWDHLEERFPMAWTKEFRQFTEDKGITPSYAMAIARQESAWNPKAQSPVGATGLMQVMPRTAEHTVKRNNIAGYLNSSQLLDPVTNIEIGTYYLEEVYQQFGRNRILSSAAYNAGPSRVNTWLGNSGGQVDAVAFIESIPFSETRGYVKNVLAYDAFYRHFMNRPAKVLSDAEWQRRY,soluble
8,MKIAIINMGNNVINFKTVPSSETIYLFKVISEMGLNVDIISLKNGVYTKSFDEVDVNDYDRLIVVNSSINFFGGKPNLAILSAQKFMAKYKSKIYYLFTDIRLPFSQSWPNVKNRPWAYLYTEEELLIKSPIKVISQGINLDIAKAAHKKVDNVIEFEYFPIEQYKIHMNDFQLSKPTKKTLDVIYGGSFRSGQRESKMVEFLFDTGLNIEFFGNAREKQFKNPKYPWTKAPVFTGKIPMNMVSEKNSQAIAALIIGDKNYNDNFITLRVWETMASDAVMLIDEEFDTKHRIINDARFYVNNRAELIDRVNELKHSDVLRKEMLSIQHDILNKTRAKKAEWQDAFKKAIDL,soluble
9,MAIRKLLLLLKPIDPYPFLQTEGASLIKNPQVLINYLPQMRLISILNPDHVLQYLESRCKVHKNAIKFCQEILSKKPVEWKPISRNDLSHPIRDVDMVITVGGDGTLLHASHFIDDSVPVLGVNSDPTQAHEVEELSDQFDASRSTGHLCAATVENFEQVLDDILFGRVVPAKVSRISLKLNSETLLSHALNDILIAQPCPAAVSRFSFKIKNKDGASSPKTVNCRSSGLRICTAAGSTAAMQSAGGFVMPMLSRDLQFMVREPISPGSTASLMHSTFKPDQFMDVNWYSDHGTIYIDGCQVQHSVQLGDTIEISSDAPVLNVFLSHGISQIRSRY,soluble
10,MKLHTLVSCLHDFPVVPKENPEITSIEADSRKVKEGSLFVCMKGYTVDSHDFAKQAAAQGAAAIVAERPIDVDVPVVLVKNTFRSLAVLADYFYGQPTHKLHLIGITGTNGKTTTSHIMDEIMRAHGHKTGLIGTINMKIGDETFEVKNTTPDALTLQQTFAKMVEHGVDSTVMEVSSHALDLGRVHGCDYDVAVFTNLTQDHLDYHKTMEEYKHAKGLLFAQLGNSYNHNREKYAVLNNDDAVTVEYMRSTAATVVTYGIDTTSDVMAKDIAMTSGGTTFTLVTPYESVNVTMKLIGKFNVYNVLAATAAGLVSGVSLETIIDVIKELAGVPGRFEVVDGGQNYTVIVDYAHTPDSLENVLKTAKQFAKGDVYCIVGCGGDRDRTKRPIMASVATQYATHAIYTSDNPRSEDPAAILDDMVHGANGNNYEVIIDRKEAIHHAITKAKADDIIIIAGKGHETYQIIGKDVHHFDDREVAKEAITERLNNEE,not soluble
11,MEFYGPITGEKFAFLLFRDNGEVIEFNHWSQVKEYKSELKISKSSIQIFLRNGCVYPPYTIYSNVLMLPIGTKLTIDIKNDIFKWENNFCFLDRHSKQDSKPSTSKLKTLIANSFAHLKKEVKPIYMMQSAGKDSTAMLLGLHEQGIQNVHCVTYEANFRDTESDAAKKIAESLGFEHTILFPNYEAEFDALLEYQENAVSITGDFSMLPYIAANKSVFKSDSLVIDGLGNDLYMGYVSNKLERSIMKCSLGNFSYLEPSKFTSNEVINYAISSIFMKPYERLFPGTRLSSSEIENFTDNKFIDDDAIYFSKQYNNLDKDDFRAAIRARFCDSTMFQMKAELTTNSFGNEVYFPFSNKELVDYYFNLPIEERYDKANSCNKTLLRSMLNEYVEVDDFFKVKSGFRYNMPEFITINKEKIKKEIIECDLLEQDYSNRFFAKHLDVQKVNYTSACKAYILLVFASWRNRNKLAVVDGHVADKFDWY,not soluble
12,MGSDKIHHHHHHMKHLLAGILVWVIWGLCSCQSDGKVIIPSPIYVDNHYHGPADPEITWNPKTEEWMIFYTSRRPFKDQASYVGTPVGVAVSKDFVHWKFAGYCSFDGVGGQPDSEKTYWAPGVIVEGDSAHMFVTLKDDSTPVWGGPSNIVHFSAPLEDMISGWRRVNTVVDTPISIDATVVKNGDRWDMWYRDRPTEDTGGLYYAQSNDLYHWTLKGLAKGDINNVEVTKHTYQEGAYAFQWKGYFWIIADPHKGLAVYRSKDAENWEYQGIVMYEPGTRFFDNTRARHPSVIIRNDRAFIVYHVQPFLGYNPNTHEAGDDVYQKLSFLQMAELEFKDGKLICDRNKVLYK,not soluble
13,MSLSIFKRKTKQVNPFEQGWLTDLIDIHCHLLPAVDDGSKSIEETLSLIDLLEEIGVKQHILTPHIMEEYPSNDAIFLRARFEELLAAITPDKASRLRLAAEYMLDVAFLDRLAEPLLTLGDRYILVETSYMAPPIGLMGLLADLRFKGLSPVLAHPERYLYMEEKDYVAIKKQGVMFQLNLFSLFGAYNSSASEKAYALLEAGYYDLIGTDIHHLQPIARLLSEASLPPDLEGKIKSLVENNTRLFSEGHHHHHH,soluble
14,MLGTIKPNYWIRKLSTKTSYGYRIDARAYVKVVRKTYHFLWKDSEEIVIFNPNADVGGLLYIGGLEHHHHHH,not soluble
15,MPDPQISAIICTHNRDTYLGAAIDSLLVQDFAGEFEVVVIDNGSSDRTREVVEQRSSDSRLKYVFEPTIGLSVARNTGAKFASAEILAYLDDDAVASTHWLQVLYAAYQNYPQLAIAGGKVTLLWPPDTQPPRWLSSGLAGNLGAYDLGDKVVYIQQPGLTPRGLNYSIRRTFLEEIGGFDPHLGRVGKNLLSNEELQMTELALTGGWQVAYLPEALVAHNVAPERLNRSWFLNRGWWQGISECYREQLSGKAGVGQLSRGGERLARGLYKAFRYFSNPAERFDNLVYAYGQIGYLNAVLQGLLFTANNKGSQLEHHHHHH,soluble
16,MMRRGLLLLNLGTPNNADIRAVKLYLREFLTDKRVIDLPTIPRYILVYCLILPFRSPKSAQAYQSIWTEKGSPLLYHSQNLVTKLQSALKDEYKIALGMRYGTPSITTALAELKDCHSLTILPLFPQYSSAATGSAIEKTLSHLANQEIIPSIKIIRDFYQRPEYIQAQAKIMKPYIKDNFHLLFSYHGIPERHIHKSGCDTLCPQTCTPIYDKNQACYRAQCYQTSLLLAKELQLGTHQYTTAFQSRLGKTPWIKPYTDEIFAELISKGIKNIVVSCPSFVADCLETLEEIGIRAKEQWEKLGGEQFILTPCMNDHPEWIKAIQSIVNEQF,not soluble
17,MIHRPTAKENAKRFASVIQALHACETACAYCATECGKNGHAEAMGRCVSLCTDCARFCALARDFLERNSEFAELLLEDCAEICQQTMEECVHHAEGHCRKCAEACEQCKKACLEVAGAAPLSSAQQKELLAALLEHHHHHH,not soluble
